{
  "source": "paper PMC9170159",
  "about": "(2022)",
  "target": "SARS-CoV-2 spike receptor-binding domain (RBD), Wuhan-Hu-1, His-tagged (SARS-CoV-2 (Wuhan-Hu-1), UniProt P0DTC2 319-541)",
  "test": "BLI",
  "data": [
    {"binder": "NCI-CoV-1B5 VHH-hFc fusion protein (Fc fusion) DVQLVESGGGSVQAGGSLRLSCTGSRYTYSTYCMGWFRQAPGKEEEAVAIINSGGGEPYYGDSVKGRFTISQDRAKNTVYLQMDGLQPDDTAIYYCVAADSHNSRCYLGRSYVNYWGQGTQVTVSS", "values": [
      {"measurement": "Kd", "result": 100, "unit": "pM"}
    ]}
  ]
}
